{"source": "patent US20190016816A1", "about": "(APTEVO RESEARCH AND DEVELOPMENT, published 2019)", "key": {"cynomolgus 5T4 on cells": {"target": "T1, cynomolgus 5T4 on cells (cynomolgus macaque, UniProt Q4R8Y9 35-420)", "T1 construct": "whole, on cells; also called CHO-K1/cynomolgus 5T4 transfectants", "T1 sequence (looked up)": "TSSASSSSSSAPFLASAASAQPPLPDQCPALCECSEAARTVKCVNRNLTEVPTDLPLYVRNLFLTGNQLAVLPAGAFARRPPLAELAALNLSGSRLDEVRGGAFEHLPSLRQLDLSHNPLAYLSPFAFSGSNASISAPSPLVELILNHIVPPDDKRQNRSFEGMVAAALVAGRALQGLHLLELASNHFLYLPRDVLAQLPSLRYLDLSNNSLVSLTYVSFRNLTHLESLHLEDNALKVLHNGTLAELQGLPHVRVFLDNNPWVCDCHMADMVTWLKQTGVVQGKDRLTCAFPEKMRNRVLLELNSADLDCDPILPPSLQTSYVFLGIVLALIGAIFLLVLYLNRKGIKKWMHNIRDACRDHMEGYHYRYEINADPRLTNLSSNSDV", "assay": "flow cytometry, CHO-K1 cells expressing cynomolgus 5T4, labelled anti-human IgG secondary, MFI (median)", "method": "Binding studies were performed by standard flow cytometry-based staining procedures two cell lines expressing 5T4:CHO-K1 cells (obtained from Alligator) transduced with human or cynomolgus macaque 5T4 and SKOV-3 human ovarian adenocarcinoma cells which express (human) 5T4. All labeling and washes were performed in U-bottom 96-well plates in saline buffer with 0.1% BSA and 2 mM EDTA. Cell were plated at approximately 100,000 cells per well and incubated with a range of 100 nM to 0.05 nM concentrations of test molecules in […], for 30 minutes on ice. Cells were washed three times then incubated for another 30 min on ice with fluorescently-labeled secondary polyclonal antibody, F(ab′)² goat anti-human IgG (Jackson ImmunoResearch Laboratories). The cells were then washed twice and the samples acquired in a BD LSRII or a Symphony A3 flow cytometer. The sample files were analyzed using FlowJo software; the mean fluorescence intensity (MFI-mean) or median fluorescence intensity (MFI-median) of the live population of cells in each well was calculated after gating on live cells (forward vs side scatter). Nonlinear regression analysis to determine EC₅₀ values was performed in GraphPad Prism 6® graphing and statistics software."}, "human 5T4 on cells [1]": {"target": "T2, human 5T4 on cells (human, UniProt Q13641 32-420)", "T2 sequence": "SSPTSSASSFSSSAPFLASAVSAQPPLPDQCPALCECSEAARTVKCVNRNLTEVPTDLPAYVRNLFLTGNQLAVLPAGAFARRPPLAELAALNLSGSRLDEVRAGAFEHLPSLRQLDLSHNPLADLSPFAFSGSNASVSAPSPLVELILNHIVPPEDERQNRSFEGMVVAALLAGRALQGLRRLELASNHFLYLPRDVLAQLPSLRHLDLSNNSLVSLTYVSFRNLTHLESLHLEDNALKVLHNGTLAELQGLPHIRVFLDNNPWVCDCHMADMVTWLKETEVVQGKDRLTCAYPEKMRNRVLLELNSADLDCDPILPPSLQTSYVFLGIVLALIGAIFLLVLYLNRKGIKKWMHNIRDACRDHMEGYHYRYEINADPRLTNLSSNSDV", "assay": "cell-based or functional assay"}, "human CD137 on cells [2]": {"target": "T3, human CD137 on cells (human, UniProt Q07011 24-255)", "T3 sequence (Q07011 24-255 limits assumed)": "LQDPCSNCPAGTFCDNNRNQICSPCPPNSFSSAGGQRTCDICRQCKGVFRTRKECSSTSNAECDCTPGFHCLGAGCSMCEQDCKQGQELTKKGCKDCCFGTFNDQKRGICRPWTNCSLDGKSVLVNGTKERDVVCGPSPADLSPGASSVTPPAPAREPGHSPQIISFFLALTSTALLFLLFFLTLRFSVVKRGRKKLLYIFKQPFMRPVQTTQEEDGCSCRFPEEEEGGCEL", "assay": "cell-based or functional assay"}, "human CD137 on cells [3]": {"target": "T3, human CD137 on cells", "assay": "cell-based or functional assay", "remark": "listed apart in the source"}, "human 5T4 on cells [4]": {"target": "T2, human 5T4 on cells", "assay": "flow cytometry, CHO/5T4 cells, PE goat anti-human Fc", "method": "A 3-fold titration of ALG.APV-210 construct (ranging from 100 nM to 0.14 nM) was incubated with the human 5T4-expressing cell lines for 40 minutes in FACS buffer at 4° C., washed 3 times, and detected with PE-labeled, goat-anti-human Fc secondary antibody (Jackson ImmunoResearch). Binding of ALG.APV-210 was detected by flow cytometry. All samples were run in duplicates. Nonlinear regression analysis to determine EC₅₀ values was performed in GraphPad Prism 6® graphing and statistics software."}, "human 5T4 on cells [5]": {"target": "T2, human 5T4 on cells", "assay": "flow cytometry, HT-29 cells, streptavidin-PE, normalized MFI of 2 pooled experiments", "method": "Prior to the FACS staining, all cell lines were characterized for their 5T4 expression levels using a receptor density kit (Quantum Simply Cellular, anti-human IgG, Bangs Laboratories, Inc). Adherent cell lines were cultured according to their supplier's instructions and were harvested from their cell culture flasks using Trypsin/EDTA, counted in R10 medium in a Burker chamber, and diluted in FACS buffer (PBS+0.5% BSA, 0.05% NaN₃) to a concentration of 4×10⁶ cells/mL. 50 μL (0.20×10⁶) of cell solution was added to a 96-well FACS staining plate (Falcon #351190). Cells were incubated for 20 min in 4° C. with 50 μL of the biotinylated ALG.APV-210 (2× final concentration). The antibodies were added in a serial dilution starting at 20 μg/mL titrating down in a 12 step ½ dilution down to 0.010 μg/mL. Following 2× washing with FACS buffer, cells were incubated for 30 min in 4° C. with 100 μL of a secondary antibody (streptavidin-PE, BD #554061, diluted 1/500). […] Cells were analysed for ALG.APV-210 binding using flow cytometry (FACSVerse) by gating on single cells. MFI values (secondary antibody only subtracted) from 1 out of 2 independent experiments, as well as normalized data and EC₅₀-values of pooled data from 2 experiments were determined and plotted using GraphPad Prism 7, non-linear regression log (agonist) vs. normalized response—variable slope."}}, "data": [{"binder": "ALG.APV-187 (bispecific antibody, Optimized ADAPTIR scFv-Fc-scFv homodimer with stabilizing disulfide in the 1210 scFv) EVQLLESGGGLVQPGGSLRLSCAASGFTFSHGSMYWVRQAPGKGLEWVSSISSGSGSTYYADSVKGRFTISHDNSKNTLYLQMNSLRAEDTAVYYCARSSYYGSYYSIDYWGQGTLVTVSSGGGGSGGGGSGGGGSGGGGSDIQMTQSPSSLSASVGDRVTITCRASQSISSYLNWYQQKPGKAPKLLIYAASSLQSGVPSRFSGSGSGTDFTLTISSLQPEDFATYYCQQYYDNLPTFGQGTKLEIKSSEPKSSDKTHTCPPCPAPEAAGAPSVFLFPPKPKDTLMISRTPEVTCVVVDVSHEDPEVKFNWYVDGVEVHNAKTKPREEQYNSTYRVVSVLTVLHQDWLNGKEYKCAVSNKALPAPIEKTISKAKGQPREPQVYTLPPSRDELTKNQVSLTCLVKGFYPSDIAVEWESNGQPENNYKTTPPVLDSDGSFFLYSKLTVDKSRWQQGNVFSCSVMHEALHNHYTQKSLSLSPGSGGGGSGGGGSGGGGSPSEVQLLESGGGLVQPGGSLRLSCAASGFTFSSYAMSWVRQAPGKCLEWVSAISGSGGSTYYADSVKGRFTISRDNSKNTLYLQMNSLRAEDTAVYYCARYYGGYYSAWMDYWGQGTLVTVSSGGGGSGGGGSGGGGSGGGGSDIQMTQSPSSLSASVGDRVTITCRASQSISSFLNWYQQKPGKAPKLLIYAASSLQSGVPSRFSGSGSGTDFTLTISSLQPEDSATYYCQQTYGYLHTFGCGTKLEIKR", "values": [{"measurement": "EC50", "setting": "cynomolgus 5T4 on cells", "result": 21, "unit": "nM"}, {"measurement": "Maximum MFI", "setting": "cynomolgus 5T4 on cells", "result": 25400}]}, {"binder": "ALG.APV-210 (bispecific antibody, Optimized ADAPTIR scFv-Fc-scFv homodimer with stabilizing disulfide in the 1210 scFv; also called 5T4-CD137 bispecific antibody) EVQLLESGGGLVQPGGSLRLSCAASGFTFSHGSMYWVRQAPGKGLEWVSSISSGSGSTYYADSVKGRFTISHDNSKNTLYLQMNSLRAEDTAVYYCARSSYYGSYYSIDYWGQGTLVTVSSGGGGSGGGGSGGGGSGGGGSDIQMTQSPSSLSASVGDRVTITCRASQSISSYLNWYQQKPGKAPKLLIYAASSLQSGVPSRFSGSGSGTDFTLTISSLQPEDFATYYCQQYYDNLPTFGQGTKLEIKEPKSSDKTHTCPPCPAPEAAGAPSVFLFPPKPKDTLMISRTPEVTCVVVDVSHEDPEVKFNWYVDGVEVHNAKTKPREEQYNSTYRVVSVLTVLHQDWLNGKEYKCAVSNKALPAPIEKTISKAKGQPREPQVYTLPPSRDELTKNQVSLTCLVKGFYPSDIAVEWESNGQPENNYKTTPPVLDSDGSFFLYSKLTVDKSRWQQGNVFSCSVMHEALHNHYTQKSLSLSPGSGGGGSGGGGSGGGGSPSEVQLLESGGGLVQPGGSLRLSCAASGFTFSSYAMSWVRQAPGKCLEWVSAISGSGGSTYYADSVKGRFTISRDNSKNTLYLQMNSLRAEDTAVYYCARYYGGYYSAWMDYWGQGTLVTVSSGGGGSGGGGSGGGGSGGGGSDIQMTQSPSSLSASVGDRVTITCRASQSISSFLNWYQQKPGKAPKLLIYAASSLQSGVPSRFSGSGSGTDFTLTISSLQPEDSATYYCQQTYGYLHTFGCGTKLEIKR", "values": [{"measurement": "maximal IFNγ release with CT26-h5T4^low cells relative to CT26-h5T4^high cells", "setting": "human 5T4 on cells [1]", "result": 82, "unit": "%"}, {"measurement": "maximal IFNγ release with CT26-wt cells (no 5T4) relative to CT26-h5T4^high cells", "setting": "human 5T4 on cells [1]", "result": 7, "unit": "%"}, {"measurement": "EC50 (nM), IFNγ release of human CD8 T cells on plate immobilized 5T4-Fc and anti-CD3", "setting": "human CD137 on cells [2]", "result": 0.2, "unit": "nM"}, {"measurement": "EC50 (nM), CD137 reporter assay with CHO/5T4 cells", "setting": "human CD137 on cells [3]", "result": 0.0092, "unit": "nM"}, {"measurement": "EC50 (nM), CD137 reporter assay with H1975 cells", "setting": "human CD137 on cells [3]", "result": 0.037, "unit": "nM"}, {"measurement": "EC50 (nM), CD137 reporter assay with MDA.MB-231 cells", "setting": "human CD137 on cells [3]", "result": 0.054, "unit": "nM"}, {"measurement": "EC50 (nM), CD137 reporter assay with TF-1 cells", "setting": "human CD137 on cells [3]", "result": 0.063, "unit": "nM"}, {"measurement": "EC50", "setting": "human 5T4 on cells [4]", "result": 10, "unit": "nM"}]}, {"binder": "biotinylated ALG.APV-210 (bispecific antibody, also called ALG.APV-210 (biotinylated for FACS detection)) EVQLLESGGGLVQPGGSLRLSCAASGFTFSHGSMYWVRQAPGKGLEWVSSISSGSGSTYYADSVKGRFTISHDNSKNTLYLQMNSLRAEDTAVYYCARSSYYGSYYSIDYWGQGTLVTVSSGGGGSGGGGSGGGGSGGGGSDIQMTQSPSSLSASVGDRVTITCRASQSISSYLNWYQQKPGKAPKLLIYAASSLQSGVPSRFSGSGSGTDFTLTISSLQPEDFATYYCQQYYDNLPTFGQGTKLEIKEPKSSDKTHTCPPCPAPEAAGAPSVFLFPPKPKDTLMISRTPEVTCVVVDVSHEDPEVKFNWYVDGVEVHNAKTKPREEQYNSTYRVVSVLTVLHQDWLNGKEYKCAVSNKALPAPIEKTISKAKGQPREPQVYTLPPSRDELTKNQVSLTCLVKGFYPSDIAVEWESNGQPENNYKTTPPVLDSDGSFFLYSKLTVDKSRWQQGNVFSCSVMHEALHNHYTQKSLSLSPGSGGGGSGGGGSGGGGSPSEVQLLESGGGLVQPGGSLRLSCAASGFTFSSYAMSWVRQAPGKCLEWVSAISGSGGSTYYADSVKGRFTISRDNSKNTLYLQMNSLRAEDTAVYYCARYYGGYYSAWMDYWGQGTLVTVSSGGGGSGGGGSGGGGSGGGGSDIQMTQSPSSLSASVGDRVTITCRASQSISSFLNWYQQKPGKAPKLLIYAASSLQSGVPSRFSGSGSGTDFTLTISSLQPEDSATYYCQQTYGYLHTFGCGTKLEIKR", "values": [{"measurement": "EC50", "setting": "human 5T4 on cells [5]", "result": 12, "unit": "nM"}]}]}
